In the test the target is recombinantly produced human-NGF (human, UniProt P01138 122-241, limits assumed). As to the kind of experiment: ELISA, human NGF coated, IgG titrated. As for the experimental part: NGF binding ELISA assay: In human NGF binding ELISA, Corning 3366 high binding 96 well plates were coated with recombinantly produced human-NGF at 1 μg per ml, 50 μl/well in 1×PBS, and incubated overnight at 4° C. The plates were washed and blocked with 250 μl of 1×PBS/1% BSA at least 30 minutes at room temperature. 50 μl of culture supernatants, after 1:1 diluted by the PBS/BSA diluent, or the purified antibodies diluted serially from a certain concentration with the diluent, were added per well, and incubated at 37° C. for 2 hours. After washing, a secondary antibody, goat anti-human IgG Fc AP (Southern biotech) was applied at a dilution of 1:3000 in PBS/BSA. The plates were incubated for 1 hour at RT and washed. After adding the PNPP substrate, the ODs at 405 nm were read.
Sequence of recombinantly produced human-NGF (P01138 122-241 limits assumed): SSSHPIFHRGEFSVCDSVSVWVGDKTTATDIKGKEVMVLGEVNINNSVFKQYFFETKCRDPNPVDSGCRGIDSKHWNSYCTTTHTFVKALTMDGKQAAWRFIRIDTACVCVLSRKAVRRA
NGF binding ELISA assay: NGF binding ELISA assay was performed as described in Example 1.
Background: An ELISA detects its analyte on a solid surface through an enzyme-linked reagent.

The term EC50 denotes the concentration giving half of the maximal effect.

B1: Ab1 (antibody, human IgG1, V domains shown)
VH: EVQLVQSGAEVKKPGATVKISCKVSGYTFITYWISWVQQAPGKGLEWMGAIDPSDSDARYSPSFQGRVTITADTSTDTAYMELSSLRSEDTAVYYCAKSDPGYSGYSLLYGFDSWGQGTLVTVSS
VL: DIVMTQTPLSSPVTLGQPASISCRSSQSLVQRNGNTYLSWLQQRPGQPPRLLIYQVSNRYSGVPDRFSGSGAGTDFTLKISRVEAEDVGVYYCGQGAHLPLTFGQGTKVEIK
notes: Lead antibody; also called Abl
For B1, the EC50 was determined as 0.0185 ng/mL.

B2: Ab7 (antibody, human IgG1, V domains shown)
VH: EVQLVQSGAEVKKPGATVKISCKVSGYTFITYWISWVQQAPGKGLEWMGAIDPSDSDARYSPSFQGRVTITADTSTDTAYMELSSLRSEDTAVYYCAKSDPGYSGYSLLYGFDSWGQGTLVTVSS
VL: DIVMTQSPLSLPVTLGQPASISCRSSQSLVQRNGNTYLSWFQQRPGQSPRLLIYQVSNRYSGVPDRFSGSGSGTDFTLKISRVEAEDVGVYYCGQGAHLPLTFGQGTKVEIK
As to B2, the 50% effective concentration (EC50) was determined as 0.00988 ng/mL.

B3: Ab12 (antibody, human IgG1, V domains shown)
VH: EVQLVQSGAEVKKPGATVKISCKVSGYSFITYWISWVQQAPGKGLEWMGAIDPSDSDARYSPSFQGRVTITADTSTDTAYMELSSLRSEDTAVYYCAKSDPGYSGYSLLYGFDSWGQGTLVTVSS
VL: DIVMTQTPLSSPVTLGQPASISCRSSQSLVQRNGNTYLSWYQQRPGQPPRLLIYQVSNRYSGVPDRFSGSGAGTDFTLKISRVEAEDVGVYYCGQGAHLPLTFGQGTKVEIK
On to B3, for which the EC50 was 0.0365 ng/mL.

B4: Ab19 (antibody, human IgG1, V domains shown)
VH: EVQLVQSGAEVKKPGATVKISCKVSGYSFITYWISWVQQAPGKGLEWMGAIDPSDSDARYSPSFQGRVTITADTSTDTAYMELSSLRSEDTAVYYCAKSDPGYSGYSLLYGFDSWGQGTLVTVSS
VL: DIVMTQSPLSLPVTLGQPASISCRSSQSLVQRNGNTYLSWYQQRPGQPPRLLIYQVSNRYSGVPDRFSGSGSGTDFTLKISRVEAEDVGVYYCGQGAHLPLTFGQGTKVEIK
B4: the EC50 amounted to 0.0324 ng/mL.

B5: Ab3 (antibody, human IgG1, V domains shown)
VH: EVQLVQSGAEVKKPGATVKISCKVSGYTFITYWISWVQQAPGKGLEWMGAIDPSDSDARYSPSFQGRVTITADTSTDTAYMELSSLRSEDTAVYYCAKSDPGYSGYSLLYGFDSWGQGTLVTVSS
VL: DVVMTQSPLSLPVTLGQPASISCRSSQSLVQRNGNTYLSWFQQRPGQSPRLLIYQVSNRYSGVPDRFSGSGSGTDFTLKISRVEAEDVGVYYCGQGAHLPLTFGQGTKVEIK
In the case of B5, the 50% effective concentration (EC50) worked out at 0.017 ng/mL.

B6: Ab20 (antibody, human IgG1, V domains shown)
VH: EVQLVQSGAEVKKPGATVKISCKVSGYSFITYWISWVQQAPGKGLEWMGAIDPSDSDARYSPSFQGRVTITADTSTDTAYMELSSLRSEDTAVYYCAKSDPGYSGYSLLYGFDSWGQGTLVTVSS
VL: DIVMTQSPLSLPVTLGQPASISCRSSQSLVQRNGNTYLSWFQQRPGQPPRLLIYQVSNRYSGVPDRFSGSGSGTDFTLKISRVEAEDVGVYYCGQGAHLPLTFGQGTKVEIK
Take B6: the EC50 came out at 0.0215 ng/mL.

B7: Ab5 (antibody, human IgG1, V domains shown)
VH: EVQLVQSGAEVKKPGATVKISCKVSGYTFITYWISWVQQAPGKGLEWMGAIDPSDSDARYSPSFQGRVTITADTSTDTAYMELSSLRSEDTAVYYCAKSDPGYSGYSLLYGFDSWGQGTLVTVSS
VL: DVVMTQSPLSLPVTLGQPASISCRSSQSLVQRNGNTYLSWYQQRPGQPPRLLIYQVSNRYSGVPDRFSGSGSGTDFTLKISRVEAEDVGVYYCGQGAHLPLTFGQGTKVEIK
As to B7, the EC50 was found to be 0.0139 ng/mL.

B8: Ab23 (antibody, human IgG1, V domains shown)
VH: EVQLVQSGAEVKKPGATVKISCKVSGYSFITYWISWVQQAPGKGLEWMGAIDPSDSDARYSPSFQGRVTITADKSTDTAYMELSSLRSEDTAVYYCAKSDPGYSGYSLLYGFDSWGQGTLVTVSS
VL: DVVMTQSPLSLPVTLGQPASISCRSSQSLVQRNGNTYLSWFQQRPGQSPRLLIYQVSNRYSGVPDRFSGSGSGTDFTLKISRVEAEDVGVYYCGQGAHLPLTFGQGTKVEIK
In the case of B8, the EC50 came out at 0.0405 ng/mL.

B9: Ab22 (antibody, human IgG1, V domains shown)
VH: EVQLVQSGAEVKKPGATVKISCKVSGYSFITYWISWVQQAPGKGLEWMGAIDPSDSDARYSPSFQGRVTITADKSTDTAYMELSSLRSEDTAVYYCAKSDPGYSGYSLLYGFDSWGQGTLVTVSS
VL: DIVMTQTPLSSPVTLGQPASISCRSSQSLVQRNGNTYLSWYQQRPGQPPRLLIYQVSNRYSGVPDRFSGSGAGTDFTLKISRVEAEDVGVYYCGQGAHLPLTFGQGTKVEIK
As for B9, the EC50 stood at 0.0382 ng/mL.

B10: Ab13 (antibody, human IgG1, V domains shown)
VH: EVQLVQSGAEVKKPGATVKISCKVSGYSFITYWISWVQQAPGKGLEWMGAIDPSDSDARYSPSFQGRVTITADTSTDTAYMELSSLRSEDTAVYYCAKSDPGYSGYSLLYGFDSWGQGTLVTVSS
VL: DVVMTQSPLSLPVTLGQPASISCRSSQSLVQRNGNTYLSWFQQRPGQSPRLLIYQVSNRYSGVPDRFSGSGSGTDFTLKISRVEAEDVGVYYCGQGAHLPLTFGQGTKVEIK
Take B10: the EC50 was 0.043 ng/mL.

B11: Ab11 (antibody, human IgG1, V domains shown)
VH: EVQLVQSGAEVKKPGATVKISCKVSGYSFITYWISWVQQAPGKGLEWMGAIDPSDSDARYSPSFQGRVTITADTSTDTAYMELSSLRSEDTAVYYCAKSDPGYSGYSLLYGFDSWGQGTLVTVSS
VL: DIVMTQTPLSSPVTLGQPASISCRSSQSLVQRNGNTYLSWLQQRPGQPPRLLIYQVSNRYSGVPDRFSGSGAGTDFTLKISRVEAEDVGVYYCGQGAHLPLTFGQGTKVEIK
In the case of B11, the EC50 was 0.032 ng/mL.

B12: Ab18 (antibody, human IgG1, V domains shown)
VH: EVQLVQSGAEVKKPGATVKISCKVSGYSFITYWISWVQQAPGKGLEWMGAIDPSDSDARYSPSFQGRVTITADTSTDTAYMELSSLRSEDTAVYYCAKSDPGYSGYSLLYGFDSWGQGTLVTVSS
VL: DIVMTQSPLSLPVTLGQPASISCRSSQSLVQRNGNTYLSWYQQRPGQSPRLLIYQVSNRYSGVPDRFSGSGSGTDFTLKISRVEAEDVGVYYCGQGAHLPLTFGQGTKVEIK
Turning to B12, the concentration for a half-maximal effect (EC50) is 0.0271 ng/mL.

B13: Ab9 (antibody, human IgG1, V domains shown)
VH: EVQLVQSGAEVKKPGATVKISCKVSGYTFITYWISWVQQAPGKGLEWMGAIDPSDSDARYSPSFQGRVTITADTSTDTAYMELSSLRSEDTAVYYCAKSDPGYSGYSLLYGFDSWGQGTLVTVSS
VL: DIVMTQSPLSLPVTLGQPASISCRSSQSLVQRNGNTYLSWYQQRPGQPPRLLIYQVSNRYSGVPDRFSGSGSGTDFTLKISRVEAEDVGVYYCGQGAHLPLTFGQGTKVEIK
On to B13, for which the concentration for a half-maximal effect (EC50) amounted to 0.0876 ng/mL.

B14: Ab15 (antibody, human IgG1, V domains shown)
VH: EVQLVQSGAEVKKPGATVKISCKVSGYSFITYWISWVQQAPGKGLEWMGAIDPSDSDARYSPSFQGRVTITADTSTDTAYMELSSLRSEDTAVYYCAKSDPGYSGYSLLYGFDSWGQGTLVTVSS
VL: DVVMTQSPLSLPVTLGQPASISCRSSQSLVQRNGNTYLSWYQQRPGQPPRLLIYQVSNRYSGVPDRFSGSGSGTDFTLKISRVEAEDVGVYYCGQGAHLPLTFGQGTKVEIK
Take B14: the EC50 was found to be 0.046 ng/mL.

B15: Ab17 (antibody, human IgG1, V domains shown)
VH: EVQLVQSGAEVKKPGATVKISCKVSGYSFITYWISWVQQAPGKGLEWMGAIDPSDSDARYSPSFQGRVTITADTSTDTAYMELSSLRSEDTAVYYCAKSDPGYSGYSLLYGFDSWGQGTLVTVSS
VL: DIVMTQSPLSLPVTLGQPASISCRSSQSLVQRNGNTYLSWFQQRPGQSPRLLIYQVSNRYSGVPDRFSGSGSGTDFTLKISRVEAEDVGVYYCGQGAHLPLTFGQGTKVEIK
Regarding B15, the EC50 came to 0.016 ng/mL.

B16: Ab21 (antibody, human IgG1, V domains shown)
VH: EVQLVQSGAEVKKPGATVKISCKVSGYSFITYWISWVQQAPGKGLEWMGAIDPSDSDARYSPSFQGRVTITADKSTDTAYMELSSLRSEDTAVYYCAKSDPGYSGYSLLYGFDSWGQGTLVTVSS
VL: DIVMTQTPLSSPVTLGQPASISCRSSQSLVQRNGNTYLSWLQQRPGQPPRLLIYQVSNRYSGVPDRFSGSGAGTDFTLKISRVEAEDVGVYYCGQGAHLPLTFGQGTKVEIK
Regarding B16, the EC50 came out at 0.0403 ng/mL.

B17: Ab2 (antibody, human IgG1, V domains shown)
VH: EVQLVQSGAEVKKPGATVKISCKVSGYTFITYWISWVQQAPGKGLEWMGAIDPSDSDARYSPSFQGRVTITADTSTDTAYMELSSLRSEDTAVYYCAKSDPGYSGYSLLYGFDSWGQGTLVTVSS
VL: DIVMTQTPLSSPVTLGQPASISCRSSQSLVQRNGNTYLSWYQQRPGQPPRLLIYQVSNRYSGVPDRFSGSGAGTDFTLKISRVEAEDVGVYYCGQGAHLPLTFGQGTKVEIK
Turning to B17, the EC50 came out at 0.0197 ng/mL.

B18: Ab14 (antibody, human IgG1, V domains shown)
VH: EVQLVQSGAEVKKPGATVKISCKVSGYSFITYWISWVQQAPGKGLEWMGAIDPSDSDARYSPSFQGRVTITADTSTDTAYMELSSLRSEDTAVYYCAKSDPGYSGYSLLYGFDSWGQGTLVTVSS
VL: DVVMTQSPLSLPVTLGQPASISCRSSQSLVQRNGNTYLSWYQQRPGQSPRLLIYQVSNRYSGVPDRFSGSGSGTDFTLKISRVEAEDVGVYYCGQGAHLPLTFGQGTKVEIK
With B18, the half-maximal effective concentration (EC50) was 0.0351 ng/mL.

B19: Ab8 (antibody, human IgG1, V domains shown)
VH: EVQLVQSGAEVKKPGATVKISCKVSGYTFITYWISWVQQAPGKGLEWMGAIDPSDSDARYSPSFQGRVTITADTSTDTAYMELSSLRSEDTAVYYCAKSDPGYSGYSLLYGFDSWGQGTLVTVSS
VL: DIVMTQSPLSLPVTLGQPASISCRSSQSLVQRNGNTYLSWYQQRPGQSPRLLIYQVSNRYSGVPDRFSGSGSGTDFTLKISRVEAEDVGVYYCGQGAHLPLTFGQGTKVEIK
In the case of B19, the concentration for a half-maximal effect (EC50) worked out at 0.0205 ng/mL.

Values taken from patent publication US20230220057A1 (STAIDSON BEIJING BIOPHARMACEUTICALS, published 2023).
